Reference: the DeepSol protein solubility set

Experiment: soluble on expression in E. coli; label from the status in PepcDB or PDB records

Soluble on expression in E. coli, not soluble:
MGSDKIHHHHHHIPNLEKSGSNFCMPFKGINVVKKCNMEYFLLNADFVNLEKTVFKKSQTLDNVCTGPENTFKTPDAGNYVVRYGERVLMTYKAGSNYRKCIGTYDVDDDLFTCVMPTDNNGFEGLEMGGFLYDPVTGEPHRDDGSVEVFCKIPHKF
MGSDKIHHHHHHITPSISSKADNLIPRTNLEISNGQVFNESQIRLRGWGLNASGIKAIDIYVDGTWKKTLVKGDGFGLSRPDVKQAFPEYPDADYSGYDYYMYLPDGNHTLRVWAIGNDNSKVYSEANITVDTSNSKGTQLVNYARKFIGVPYVWGGDTPNGFDCSGLVMYCYAHFGVNLPHYTGDQVKYGTVVTDLQPGDLLFFGSTSDPYHVAIYSGNGYMIEAPKTGENVHETPVRSYSIAKRIF
MGSDKIHHHHHHKDSNKWKMTGDVSVQDDIMTLKGTDALAVLKNGKYKNFDLTLDLRTTPGGKGAVWFHTDPTLKKGYRIAINNDRADKVWWKMTGSLVSVRNLTKSFVKEDQWFKMDIRVAGQEIDVNINGEPVVEYIQPTAPYRTDANAYALLSEGTFAIESDGSGEIQIKNITVNVIDESTIDINAQLAEANDEQNDEIIKLHQSDFPVLDYHVHLKGGLTKEVAAKQSRKTGINYTIAPNCGIGFPITNDQQVMDYLNEMRSQPFILGMQAEGREWITTFSPETLKEFDYVFTDALTFKDNKGRRTRLWIPEETWIENEEQYMDMIVDRICSVLEEPVDIYVNPCFLPSPMDKRFDEFWTEARMNRFVEALAKSGKALEINELYNIPNKAIIMKAKAAGVKFTFGSNNVTPNVSDLSYSIRMMKECGLTAEDMYKPKVKI
MGSDKIHHHHHHKDTKWVDVPTGTPPEGSVTGKPGETEEPDDPDPTDKTFINCSYIRGDFFETNRISGASMGACNDLIYLTARPYADGDLTFDLPVNDATLTGAATYAASYNGRNGVLKLDGTGKMNAGDGLLHSPDGAFKKFTFGTYIYVSEWVDGACLFKKVDGGSVVIAFQLGATEGNLKLTVGSATATVTNSALKSGAWHYVAVTYDGGAAKLYIDTNNTATDFTGSLPASVPNTRADFVMGENLKGYLDETFVNSLLMGTLGRNPISFDNWNNTKTLAYWKYDDAAKPGKDSHTWAIRLEQIRTALNGQAGDRKIRLGIAGGEWLKMVGNATARTNFANNVKKVIEQYNLDGADLDFEWAYSGTDLSNYSKAIVQLREVLGKDVFLTVSLHPVSYKISAEAIAAVDFISLQCYGPSVELFSMERFKSDGKAAVDYGIPQDKLVMGVPFYGTTGTAGEQAAYFDLVGKGNLTNTSADTWSYEGKNYTLNSQNTIRQKTQYVCENGFGGIMSWDLATDVDVTHEMSLLKAVKEELDYYANPTVE
MGSDKIHHHHHHLASHHSLLNHQRHFERIGPDYRNGDSVSFLDIKHTFGLQHIRVGKWVNREESALAANLIFDSLADLANILAVPPELIGLRGSLRFAFGHGGQKGVQAHYSPAYRELALAKNAGAGALAHEFWHAFDHYIADKMFIDDSILDPYLSSLILSEQTTNTTRTNFSRANLFACASDNWLADKSIIAHPLNKKLSSLFKVTLLSANGQEPHDYVRRSIALDKQQRSHYFAKPTEMMARAFESCIEMYSQDYANISNPYLVNSTIDSPLAKHGAYPDAQHCREIYQAMMEYFEPLGLAFDKQNGQK
MGSDKIHHHHHHLDGDTQISIEALTSLSQITAEEWDACACPEDGRPLDPFTTYRFLDALEQSGSVGPGSGWQPRYLVARMDDQVIACAPMYAKGHSQGEYIFDHNWAHAYENAGGAYYPKLQIAAPFTPATGRRFLTRPGHDATGISALIQGAVQIAADNDLSSLHVTFCTEDEAIAGERIGLMRRWSQQFHWVNDGYADFDGFLASLSSRKRKNIRKERARAQAFGGEIVSLTGAQIKAEHWDAFWHFYQDTGARKWGTPYLTRAFFDIVHETLTDDMLLCLAIREGQPVAGALNFIGADTLYGRYWGCVEDHPCLHFELCYYQAIDYAIANGLSRVEAGAQGAHKLARGYLPVATHSLHWVRDAGFAEAIGRYLEAEREAVDEEIEVLTGYGPFKRA
MGSDKIHHHHHHLIKSIFNKLFNLRENNPIERPKSFSATDLGKPLAISPKNITQQESISANVVYVDLSALFYSLLFPARVNDAGGIANNLERRVMAEIEHALASPQVIAEKVLKLPSKVLELDRKLADPQFDIKALLALIERDPLLSVEVLKLCNSPAFKRSDRDITNLQQALVQLGREQLRKFVTTCLVREMLDIKPIYFRRFGAEIWRHSMQVAFLASELSDEDQDTAFLLGLLHDVGKLAIFKMLLDAFVQAEPGEQPNSGLFRQVMTTKSLTLSSLLAKHWQLPNTFETELDRLASVNSRPQAGLAAVVWRANVISEISMLHQAGQLSPEILANLLQQVNLEQTQFDGLHQKLLQF
MGSDKIHHHHHHLKIITVSGPPSSGKTSVIIKTIEYLKKDQLEIGVVKFDSLSTYDDQMYKKLGVKVKVGLSGNLCPDHYYMTNIEDCVKWGVSEKLDMLISESAGLCNRCSPHIRDVLAICVIDNLSGINTPKKIGPMLRLADIVVITKGDIVSQAEREVFAFRAKQSSPRASIVFINGITGQGAYDLSLRLKEANDYESVIDKKLRFSMPAAVCSYCTGEIRIGERYQTGNIKKIKL
MGSDKIHHHHHHLPLLLPVGSQILRNKMRSKPRILIALSSVGLGGAERQGLMFAEYLKCKHSFDVLVSTFGGEGKVSLLCKETGIQHVNIAYPLLGHRWEVWWKLISTALTLRKIKPDCIVSYCMPANAACAAVWRLTGARACIWGQRDAGLQKELLTPIPLAPRLATCFVSNSPHGAAFLENQLAIPRHKISTIPNAVKLNVAQLSRTEWRSRLKISHDAMIVTMVSNLSFRKDHETLLKAWRIGLDNQLFPQNTKLVLCGRDDSNAPVIRKLAGKLHLDNHIRFAGATDDVAGILNASDIAAFSFISEGLPNVVIESMAAGLPVVATDIPGVRAAIGSCDDNILVPPKDPAAMAHGIAKILQDPALRSRAAAANITQATSTFAPDVVFSAFAKLILSNI
MGSDKIHHHHHHLPRRYEDIYPSLPLLNSDGLEHMSAASLMSVRYFQAEPDRMPEDVFAEHHILLNLKAEPHRVQNTRDGEMRDFTFSKNDIIVTPAGMRSGWRWFAQSDVIVVTLLPDRVQRFAETELGLLLDPQQLGDLPLFSDADLCAAGVMLRDALEADDMSSAVMFEALSRVFLVKLLQRYGKRRPEDVALSSRFTSAHYNRVLAFIRANLERTITLDDLASEAGMSPSHFSRLFKDTVGTPPMQYVMAYRIEQSLAMMTDQGRALGDIALACGFADQAHFSRSFKQLMGATPRQHRSSLS
MGSDKIHHHHHHLRSNRVTQHPPLQLSLPVHLPDDETFTSYYPAAGNDELIGALKSAASGDGVQAIYLWGPVKSGRTHLIHAACARANELERRSFYIPLGIHASISTALLEGLEQFDLICIDDVDAVAGHPLWEEAIFDLYNRVAEQKRGSLIVSASASPMEAGFVLPDLVSRMHWGLTYQLQPMMDDEKLAALQRRAAMRGLQLPEDVGRFLLNRMARDLRTLFDVLDRLDKASMVHQRKLTIPFVKEMLRL
MGSDKIHHHHHHLRVKKKWFIPIGILALSSWFLYRENNQIDTTAVTVQSDKLPAAFNDYKILQIADLHGKSFGSRQKVLLKKVNKLQPDVILMTGDLIDSRRNGEEEALLLMKQLTPDYPVYFVTGNHEVRLNLTILPKLEQLGVTVLRNTSVSLEQNGQFIELLGIDDPTTTRWSEGLQEPDGIRQSLDQAQSTAETRSFQLLMAHRPEYLPLYAERKVDLVLSGHAHGGQIRLPFTDGMYAPGQGFFPDLTAGQHTMENTRLIISRGLGNSLFPFRIFNHPELIVVTLRT
MGSDKIHHHHHHLSFLYVYERSAKIGVQENCVVVESKKENLKRILPIEGVENVIIFGDASLSSNCVKQFMERDINLTWLSSRGKFYGRLESTRNVNIYRQRKQFACGEDDEFCLALAKRIILAKVKNQITILRRYRRNRPEKSVQKIIDAMAKLLPIMERVHNKDELMGHEGMAARYYYQGLAELVEPDFAFSGRNRQPPRDPFNSLLSFAYTLLMYDLYTAAVNRGLNPYASFLHSIRRGHPALCSDLMEEWRAILADSLALYVTSKGIIKRENFEKPNEEGGVYLDGIGSKAFIAEYEKKVRGRSNYLAYVDYSVSFRRAMEMQCQRLAKAIEEGDPSIYQPVVIR
MGSDKIHHHHHHLSNYINDLRQKVGNAPLILNTATGALFNNAGEVLLQERVDTKDWGFPGGYLEYGETYKKAIMREFQEDTGLSVIPEKLIQNTDDTFYKYPNGDQIQSINQFFLVRYLEGTLLSVKTGETTRLKYFKLDQPPQFFNEQHAEMFKKIQRMRE
MGSDKIHHHHHHLSPSVYPKSMADMETIVTSVYANMVAVPLYGKRVMAKGTFCVDHTVDMAWTGDANWNQLATNQVTSDNAYIGTLWIGYYKMISCANTVLEQLERIDKEKFTDADLARLSQMKGEALFWRGWAHQQLVAFFGEGYPCNGDGDKKGVPVRLQVASTPDMLNIERSTVAEVYDQILKDYEAAKLLLPAVWEERADYPRPTSVAVASYIGQANLYMGNYDAAKKALKEVIDSSGKELLPFNEYAKMFNEDQEKFNRESILEINFRNGDTSGYFWYGEGSQYGLIAALCFQNASGDVEAAGWGNIFFHDANIKRFNGDPRLDIAALRPGTPVIMNGQQTQVLKYKDTEADIQGWSMRKYNPLKSTVNELNLGVGINMYLMRLADVYLMYAEACQATGDEVNARNYMNLVRRRAYNGDSSHDITASGEALRDAIREERFMEFCGEGVQHWQDVCRWKVLDEEISRWYGKTRVGNPHYDAKDLYFPIPKVEMENNPNMTQSIGYENE
MGSDKIHHHHHHLTEFTLMVAPNGARRGKADHPALPMTAPELAETALACHRLGAQALHLHVRDAEGVHSLDAGRYREAMSLVSEAVPTMGIQITTESAGLFDVGAQLACLEALRPAAASVSVREMARDKSLAARAYALCSEAGTQVQHILYTPECVEQLEAWYADGTVPDEMRDVILVLGQYATGQPARPAMLPPFLALIAPLDLRWSLCAFGPEEHACLLAAVEAGGQVRIGFENSLGPMGGPAWADNAASVEAFLNLTVARGHTLDPHQNMPGANLRELT
MGSDKIHHHHHHLTLESKYHKKPEEIEEEQLWIEKAKQNPQHFAVLYEKYYKTIFLYLFRKVNDMDVAGDLCSDVFSKALSAIQSYEYKGVPYSAWLYRIAANEANMYFRKHNKREMICIDDTSIHLLNEDLQESNEENIYLTFLPLCLERLKPDEVILVQWRFFENKAFKEVGEIMNMTENNAKVKTYRILEKIRKWMLEMKGKSNE
MGSDKIHHHHHHLVEKRRVMSNLETNQGRLAAIETFAERCPDCGSLLYRPKGLSKVTGKKMAGVCMNCGYKQPPTEPKNVTPDMEKEARKNRTVGYYLAYSVFSTDAIIAKDFNNFHTDGSLGQQQLKLFAVGLSNKICRNEVVHALIIGDTGVGKSHIANGILIDTQAKTGYRKTCLFIDWNALMQRLKSGMSANAQDVRMKNEKIMHEIGKADVVVIDDLGSERGSDFDRQTADDVFRMREDKATIVTTNLHGQDLNKRYGERTMSRMAKHGQGNSFGVKGILDQRKEALP
